# Test results: patent publication US20100028995A1, “Tetranectin Trimerizing Polypeptides” (Anaphore, Inc., priority 2004, published 2010)
# Assay: Differential scanning calorimetry (VP-DSC) of tetranectin trimerisation domain and deletion peptides
# Assay type: physicochemical
# Conditions: for TM if N is free: in °C
# Protocol: A characterization of the thermal stability of the trimerisation domain of tetranectin was obtained using DSC, both of the full length trimerisation domain and of deletion mutants.
# The DSC scans were conducted on a VP-DSC from MicroCal LLC (Northampton, Mass.). For most of the scans a PBS buffer containing 110 mM NaCl and 40 mM NaPO4 was used. The pH was 7.4. The scans were made from 10 to 110° C. under approximately 25 psi at a scan rate of 1° C./min and a pre-scan period of 20 minutes. At least two scans with buffer in both chambers were conducted before removal of buffer from both chambers and the filling with new buffer and protein/peptide solution to the reference and sample chamber respectively.
# Peptides were synthesized by an outside vendor and were based on the tetranectin sequence, however, minor modifications were applied. In particular, the residue corresponding to Cys 50 was changed to a Serine. Also, residue number 28 is in native TN polymorphic, being either a Ser or an Ala. In the following experiments, Ala was selected. In addition, the N and C-terminal of the peptides were modified to remove charge and mimic natural peptides, increase stability toward digestion by aminopeptidases and block against synthetase activity. In the N-terminal deletion class peptides the N-terminal is acetylated and the C-terminal is prolonged with a β-Ala and a Cys. For the C-terminal deletion class peptides the modification are amidation of the C-terminal and all the sequences start with Cys-βAla.
# Since these peptides were lyophilized from a TFA solution the pH of the redissolved peptides had to be adjusted. This was done using our micro-pH meter from Unisense. The pH was adjusted to the same mV value as found for the buffer by adding small portions of 0.2 M NaOH to the solution immediately followed by mixing. In order to prevent disulphide-bridge dimerisation and possible stabilization of the multimeric structures all scanning of peptides were conducted in 5 mM β-mercaptoethanol. Prior to scanning and addition of β-mercaptoethanol the sample and buffer were extensively degassed under vacuum while stirring.
# Trip-A (SEQ ID NO:42) was scanned at concentrations ranging from 2 mM to 0.125 mM, by lowering the concentration by a factor 2. This corresponds to protein concentrations from 12.7 mg-ml to 0.80 mg/mL. […] The difference between the two-state model and the non-2-state model can be stated as that the non-2-state model contains a contribution to the unfolding energy from co-operative stabilization of subunits. This leads to a sharpening of the peak. The parameter introduced relative to the 2-state model is called the ΔHv, or the van't Hoff enthalpy. The ratio between ΔHv and ΔH can be taken as a measurement of the number of subunits in one unfolding unit. The result is shown on FIG. 13 and Table 6. The data is from one representative scan and fitted to the non-2-state model.
# The “dissociation with dCp” model describes a system where unfolding and dissociation of a multisubunit protein is simultaneous. The data is from one representative scan and fitted to the “dissociation with dCp” model. The ΔHm and dCp value is per trimer.
# [1] = Trip-A 0.125 mM, dissociation with dCp model
# [2] = Trip-A 0.125 mM, dissociation with dCp model, per trimer
# [3] = Trip-A 0.125 mM, non-2-state model, PBS pH 7.4
# [4] = Trip-A 0.25 mM, dissociation with dCp model
# [5] = Trip-A 0.25 mM, dissociation with dCp model, per trimer
# [6] = Trip-A 0.25 mM, non-2-state model, PBS pH 7.4
# [7] = Trip-A 0.5 mM, Down, first scan
# [8] = Trip-A 0.5 mM, Down, first scan, per trimer
# [9] = Trip-A 0.5 mM, Down, sec. scan, per trimer
# [10] = Trip-A 0.5 mM, Up, first scan, per trimer
# [11] = Trip-A 0.5 mM, Up, second scan, per trimer
# [12] = Trip-A 0.5 mM, dissociation with dCp model
# [13] = Trip-A 0.5 mM, dissociation with dCp model, per trimer
# [14] = Trip-A 0.5 mM, non-2-state model, PBS pH 7.4
# [15] = Trip-A 1.0 mM, dissociation with dCp model
# [16] = Trip-A 1.0 mM, dissociation with dCp model, per trimer
# [17] = Trip-A 1.0 mM, non-2-state model, PBS pH 7.4
# [18] = Trip-A 2.0 mM, dissociation with dCp model
# [19] = Trip-A 2.0 mM, dissociation with dCp model, per trimer
# [20] = Trip-A 2.0 mM, non-2-state model, PBS pH 7.4
substance,measurement,setting,value
Trip-A: full length trimerisation domain of tetranectin (SEQ ID NO:42) (SPGTEPPTQKPKKIVNAKKDVVNTKMFEELKARLDTLSQEVALLKEQQALQTVSLKGS),Rev. (%),"Table 10, N-terminal deletion peptides, Conc per construct",97.6%
same,ΔHm (kJ/mol(trimer)),"Table 10, N-terminal deletion peptides, dissociation with dCp model, Conc per construct",319.2 ± 0.4 kJ/mol(trimer)
same,TM (° C.),"Table 10, N-terminal deletion peptides, dissociation with dCp model, PBS pH 7.4, Conc per construct 0.32-0.63 (column Conc)",84.7 ± 0.1 °C
same,dCp (kJ/molK),"Table 10, N-terminal deletion peptides, per trimer, Conc per construct",0.7 ± 0.1 kJ/molK
same,Rev. (%),"Table 11, C-terminal deletion peptides, Conc per construct",97.6%
same,ΔHm (kJ/mol(trimer)),"Table 11, C-terminal deletion peptides, dissociation with dCp model, Conc per construct",319.2 ± 0.4 kJ/mol(trimer)
same,TM (° C.),"Table 11, C-terminal deletion peptides, dissociation with dCp model, PBS pH 7.4, Conc per construct 0.4-0.63 (column Conc)",84.7 ± 0.1 °C
same,dCp (kJ/molK),"Table 11, C-terminal deletion peptides, per trimer, Conc per construct",0.7 ± 0.1 kJ/molK
same,Rev. (%),[1],98.9%
same,TM (° C.) (N = 3),[1],82.2 ± 0.3 °C
same,N (free),[1],1.88
same,TM if N is free,[1],78.9 ± 0.3
same,dCp (kJ/molK),[2],2.4 ± 0.2 kJ/molK
same,ΔHm,[2],277.0 ± 1.9 kJ/mol
same,Reversibility (%),[3],94.2%
same,TM (° C.),[3],73.1 ± 0.03 °C
same,ΔH,[3],63.7 ± 0.2 kJ/mol
same,ΔHv,[3],177.9 ± 0.6 kJ/mol
same,ΔHv/ΔH,[3],2.8
same,Rev. (%),[4],98.2%
same,TM (° C.) (N = 3),[4],81.4 ± 0.1 °C
same,N (free),[4],2.48
same,TM if N is free,[4],81.2 ± 0.1
same,dCp (kJ/molK),[5],3.3 ± 0.1 kJ/molK
same,ΔHm,[5],284.5 ± 0.7 kJ/mol
same,Reversibility (%),[6],95.6%
same,TM (° C.),[6],75.9 ± 0.1 °C
same,ΔH,[6],53.3 ± 0.4 kJ/mol
same,ΔHv,[6],192.6 ± 1.7 kJ/mol
same,ΔHv/ΔH,[6],3.6
same,Rev. (%),[7],68.9%
same,TM (° C.),"Trip-A 0.5 mM, Down, first scan (refolding), dissociation with dCp model",79.8 ± 0.1 °C
same,N (free),[7],0.66
same,TM if N is free,[7],81.4 ± 0.4
same,dCp (kJ/molK),[8],3.5 ± 0.1 kJ/molK
same,ΔHm,[8],-249.0 ± 1.3 kJ/mol
same,Rev. (%),"Trip-A 0.5 mM, Down, sec. scan",85.6%
same,TM (° C.),"Trip-A 0.5 mM, Down, sec. scan (refolding), dissociation with dCp model",80.2 ± 0.2 °C
same,N (free),"Trip-A 0.5 mM, Down, sec. scan",1.45
same,TM if N is free,"Trip-A 0.5 mM, Down, sec. scan",85.6 ± 0.3
same,dCp (kJ/molK),[9],6.9 ± 0.1 kJ/molK
same,ΔHm,[9],-171.5 ± 2.2 kJ/mol
same,Rev. (%),"Trip-A 0.5 mM, Up, first scan",94.2%
same,N (free),"Trip-A 0.5 mM, Up, first scan",2.13
same,TM if N is free,"Trip-A 0.5 mM, Up, first scan",84.0 ± 0.1
same,TM (° C.),"Trip-A 0.5 mM, Up, first scan, dissociation with dCp model",82.3 ± 0.1 °C
same,dCp (kJ/molK),[10],1.7 ± 0.1 kJ/molK
same,ΔHm,[10],288.3 ± 0.6 kJ/mol
same,Rev. (%),"Trip-A 0.5 mM, Up, second scan",94.0%
same,N (free),"Trip-A 0.5 mM, Up, second scan",3.7
same,TM if N is free,"Trip-A 0.5 mM, Up, second scan",80.3 ± 0.1
same,TM (° C.),"Trip-A 0.5 mM, Up, second scan, dissociation with dCp model",81.7 ± 0.1 °C
same,dCp (kJ/molK),[11],2.0 ± 0.1 kJ/molK
same,ΔHm,[11],271.5 ± 0.3 kJ/mol
same,Rev. (%),[12],97.6%
same,TM (° C.) (N = 3),[12],84.7 ± 0.1 °C
same,N (free),[12],3.93
same,TM if N is free,[12],83.5 ± 0.1
same,dCp (kJ/molK),[13],0.67 ± 0.01 kJ/molK
same,ΔHm,[13],319.2 ± 0.4 kJ/mol
same,Reversibility (%),[14],94.1%
same,TM (° C.),[14],81.4 ± 0.1 °C
same,ΔH,[14],48.6 ± 0.4 kJ/mol
same,ΔHv,[14],232.6 ± 2.4 kJ/mol
same,ΔHv/ΔH,[14],4.8
same,Rev. (%),[15],97.6%
same,TM (° C.) (N = 3),[15],83.2 ± 0.1 °C
same,N (free),[15],2.21
same,TM if N is free,[15],86.0 ± 0.1
same,dCp (kJ/molK),[16],0.58 ± 0.02 kJ/molK
same,ΔHm,[16],303.3 ± 0.6 kJ/mol
same,Reversibility (%),[17],97.7%
same,TM (° C.),[17],86.5 ± 0.1 °C
same,ΔH,[17],36.9 ± 0.6 kJ/mol
same,ΔHv,[17],272.2 ± 5.4 kJ/mol
same,ΔHv/ΔH,[17],7.4
same,Rev. (%),[18],95.6%
same,TM (° C.) (N = 3),[18],85.2 ± 0.4 °C
same,N (free),[18],5.67
same,TM if N is free,[18],77.0 ± 0.5
same,dCp (kJ/molK),[19],−7.1 ± 0.5 kJ/molK
same,ΔHm,[19],384.5 ± 3.4 kJ/mol
same,Reversibility (%),[20],105 (!) %
same,TM (° C.),[20],90.4 ± 0.1 °C
same,ΔH,[20],32.4 ± 0.3 kJ/mol
same,ΔHv,[20],279.9 ± 3.5 kJ/mol
same,ΔHv/ΔH,[20],8.6
same,Rev (%),"Trip-A, pH 3.0",93.1%
same,TM (° C.),"Trip-A, pH 3.0 (100 mM NaCl 25 mM NaPO4)",84.6 ± 0.2 °C
same,dCp (kJ/molK),"Trip-A, pH 3.0, per trimer",11.9 ± 0.3 kJ/molK
same,ΔHm,"Trip-A, pH 3.0, per trimer",297.9 ± 2.9 kJ/mol
same,Rev (%),"Trip-A, pH 4.0",88.1%
same,TM (° C.),"Trip-A, pH 4.0 (100 mM NaCl 25 mM NaAcetat)",82.6 ± 0.1 °C
same,dCp (kJ/molK),"Trip-A, pH 4.0, per trimer",0.12 ± 0.07 kJ/molK
same,ΔHm,"Trip-A, pH 4.0, per trimer",294.1 ± 0.9 kJ/mol
same,Rev (%),"Trip-A, pH 7.4",97.6%
same,TM (° C.),"Trip-A, pH 7.4",84.7 ± 0.1 °C
same,dCp (kJ/molK),"Trip-A, pH 7.4, per trimer",0.67 ± 0.05 kJ/molK
same,ΔHm,"Trip-A, pH 7.4, per trimer",319.2 ± 0.4 kJ/mol
same,Tm values,"across concentrations 0.125-2 mM, dissociation with dCp model",81-85 °C
same,ΔHm,"across concentrations, dissociation with dCp model",approximately 300 kJ/mole
same,stability to pH,"scans at pH 3.0, 4.0 and 7.4",exhibits stability to pH
